B1: CER113: Chimeric engulfment receptor: Tim4 binding, Tim4 transmembrane, TRAF6 and Baff-R signaling; SEQ ID NO: 149 (protein)
chain: MSKGLLLLWLVTELWWLYLTPAASEDTIIGFLGQPVTLPCHYLSWSQSRNSMCWGKGSCPNSKCNAELLRTDGTRIISRKSTKYTLLGKVQFGEVSLTISNTNRGDSGVYCCRIEVPGWFNDVKKNVRLELRRATTTKKPTTTTRPTTTPYVTTTTPELLPTTVMTTSVLPTTTPPQTLATTAFSTAVTTCPSTTPGSFSQETTKGSAFTTESETLPASNHSQRSMMTISTDIAVLRPTGSNPGILPSTSQLTTQKTTLTTSESLQKTTKSHQINSRQTILIIACCVGFVLMVLLFLAFLMSLLNCENSCGSSQSESDCCVAMASSCSAVTKDDSVGGTASTGNLSSSFMEEIQGYDVEFDPPLESKYECPICLMALREAVQTPCGHRFCKACIIKSIRDAGHKCPVDNEILLENQLFPDNFAKREILSLMVKCPNEGCLHKMELRHLEDHQAHCEFALMDCPQCQRPFQKFHINIHILKDCPRRQVSCDNCAASMAFEDKEIHDQNCPLANVICEYCNTILIREQMPNHYDLDCPTAPIPCTFSTFGCHEKMQRNHLARHLQENTQSHMRMLASWRRRQRRLRGASSAEAPDGDKDAPEPLDKVIILSPGISDATAPAWPPPGEDPGTTPPGHSVPVPATELGSTELVTTKTAGPEQQ
modifications: CER113, amino acids 1-22 are signal peptide
B2: CER112: Chimeric engulfment receptor: Tim4 binding, Tim4 transmembrane, TRAF6 and NFAM1 signaling; SEQ ID NO: 148 (protein)
chain: MSKGLLLLWLVTELWWLYLTPAASEDTIIGFLGQPVTLPCHYLSWSQSRNSMCWGKGSCPNSKCNAELLRTDGTRIISRKSTKYTLLGKVQFGEVSLTISNTNRGDSGVYCCRIEVPGWFNDVKKNVRLELRRATTTKKPTTTTRPTTTPYVTTTTPELLPTTVMTTSVLPTTTPPQTLATTAFSTAVTTCPSTTPGSFSQETTKGSAFTTESETLPASNHSQRSMMTISTDIAVLRPTGSNPGILPSTSQLTTQKTTLTTSESLQKTTKSHQINSRQTILIIACCVGFVLMVLLFLAFLMSLLNCENSCGSSQSESDCCVAMASSCSAVTKDDSVGGTASTGNLSSSFMEEIQGYDVEFDPPLESKYECPICLMALREAVQTPCGHRFCKACIIKSIRDAGHKCPVDNEILLENQLFPDNFAKREILSLMVKCPNEGCLHKMELRHLEDHQAHCEFALMDCPQCQRPFQKFHINIHILKDCPRRQVSCDNCAASMAFEDKEIHDQNCPLANVICEYCNTILIREQMPNHYDLDCPTAPIPCTFSTFGCHEKMQRNHLARHLQENTQSHMRMLALWNKKRMRGPGKDPTRKCPDPRSASSPKQHPSESVYTALQRRETEVYACIENEDGSSPTAKQSPLSQERPHRFEDDGELNLVYENL
modifications: CER112, amino acids 1-22 are signal peptide
B3: CER114: Chimeric engulfment receptor: Tim4 binding, Tim4 transmembrane, TRAF6 and MERTK signaling; SEQ ID NO: 150 (protein)
chain: MSKGLLLLWLVTELWWLYLTPAASEDTIIGFLGQPVTLPCHYLSWSQSRNSMCWGKGSCPNSKCNAELLRTDGTRIISRKSTKYTLLGKVQFGEVSLTISNTNRGDSGVYCCRIEVPGWFNDVKKNVRLELRRATTTKKPTTTTRPTTTPYVTTTTPELLPTTVMTTSVLPTTTPPQTLATTAFSTAVTTCPSTTPGSFSQETTKGSAFTTESETLPASNHSQRSMMTISTDIAVLRPTGSNPGILPSTSQLTTQKTTLTTSESLQKTTKSHQINSRQTILIIACCVGFVLMVLLFLAFLMSLLNCENSCGSSQSESDCCVAMASSCSAVTKDDSVGGTASTGNLSSSFMEEIQGYDVEFDPPLESKYECPICLMALREAVQTPCGHRFCKACIIKSIRDAGHKCPVDNEILLENQLFPDNFAKREILSLMVKCPNEGCLHKMELRHLEDHQAHCEFALMDCPQCQRPFQKFHINIHILKDCPRRQVSCDNCAASMAFEDKEIHDQNCPLANVICEYCNTILIREQMPNHYDLDCPTAPIPCTFSTFGCHEKMQRNHLARHLQENTQSHMRMLAALRRRVQETKFGGAFSEEDSQLVVNYRAKKSFCRRAIELTLQSLGVSEELQNKLEDVVIDRNLLVLGKVLGEGEFGSVMEGNLKQEDGTSQKVAVKTMKLDNFSQREIEEFLSEAACMKDFNHPNVIRLLGVCIELSSQGIPKPMVILPFMKYGDLHTFLLYSRLNTGPKYIHLQTLLKFMMDIAQGMEYLSNRNFLHRDLAARNCMLRDDMTVCVADFGLSKKIYSGDYYRQGRIAKMPVKWIAIESLADRVYTSKSDVWAFGVTMWEITTRGMTPYPGVQNHEMYDYLLHGHRLKQPEDCLDELYDIMYSCWSADPLDRPTFSVLRLQLEKLSESLPDAQDKESIIYINTQLLESCEGIANGPSLTGLDMNIDPDSIIASCTPGAAVSVVTAEVHENNLREERYILNGGNEEWEDVSSTPFAAVTPEKDGVLPEDRLTKNGVSWSHHSTLPLGSPSPDELLFVDDSLEDSEVLM
modifications: CER114, amino acids 1-22 are signal peptide

In one assay the test system is SCC152 cells. In words: Elimination of GFP-expressing SCC152 target cells over time (quantification and time lapse imaging). Particulars: 0 to 36 hrs, compared to the control. It is filed as cell-based. A digest of the protocol: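 GFP-labelled SCC152 (HPV16+) target cells were co-cultured at 1:1:1 with CD8+ T cells carrying an HPV16 E7 TCR and with CD4+ T cells transduced with a chimeric CER or a control. Remaining target cells were counted by fluorescence imaging and automated software at 0, 12, 24, 36 h or 0, 24, 48 h.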
With B1, the “elimination of SCC152 cells, time lapse imaging” value (shortened to “elimination … time lapse imaging”) is reported as “enhanced elimination of SCC152 cells”.
Regarding B2, the “elimination … time lapse imaging” value is listed as “enhanced elimination of SCC152 cells”.
With B3, the “elimination … time lapse imaging” value is reported as “enhanced elimination of SCC152 cells”.

The assay is the same for the next values; noted with them: by 36 hrs, 1:1:1 ratio (CD8:CD4:target cell), compared to control.
Consider B1, for which the “elimination of SCC152 cells (GFP quantification)” value is recorded as “nearly complete elimination”.
Same read-out and setting: then B2, with “nearly complete elimination”.
The same measure, in the same setting: the value for B3 was “nearly complete elimination”.

For a further assay, the system named is SCC152 target cells. In words: Phagocytosis of SCC152 by CD4+ T cell/CER, fluorescence microscopy with hybrid capture. It is filed as cell-based. Particulars: TRAF-domain CERs, 4 hours, 1:1:0.5 (CD8:CD4:target cell); versus CD4+ control + CD8+/E7 TCR. How it is done:
FIG. 28 is a bar graph representing quantification of CD4+ T cell-CER mediated phagocytosis of SCC152 target cells. Results calculated as ((number of phagocytic target events)/(total number of effectors))*100 from 3×3 40× images, 4 hours after initiation of co-culture assay. CD8+ T cells transduced with HPV16 E7 TCR and CD4+ T cells transduced with selected CERs (CER5, CER17, CER19, CER21, CER23, CER26, CER27, CER103b, CER104, CER105, CER106, or CER116) were co-cultured with SCC152 squamous head and neck carcinoma target cells at a 1:1:0.5 ratio for 4 hours and imaged.
FIG. 29 is a bar graph representing quantification of CD4+ T cell-CER mediated phagocytosis of SCC152 target cells. Results calculated as (median area ratio of target events in effector cells*% phagocytosis) from 3×3 40× images, 4 hours after initiation of co-culture assay. CD8+ T cells transduced with HPV16 E7 TCR and CD4+ T cells transduced with selected CERs (CER5, CER17, CER19, CER21, CER23, CER26, CER27, CER103b, CER104, CER105, CER106, or CER116) were co-cultured with SCC152 squamous head and neck carcinoma target cells at a 1:1:0.5 ratio for 4 hours and imaged.
(§1) FIG. 55 is a bar graph representing quantification of CD4+ T cell-CER mediated phagocytosis of SCC152 target cells. Percent phagocytosis was calculated as ((number of phagocytic target events)/(total number of effector cells))*100. These numbers were calculated from 3×3 images captured by Keyence BZ-X710 fluorescence microscope at 40× resolution, 4 hours after initiation of co-culture assay. CD8+ T cells transduced with HPV16 E7 TCR and CD4+ T cells transduced with a selected CER (CER29, CER30, CER110, CER112, CER113, CER114, CER116, or CER117) were co-cultured with SCC152 target cells at a 1:1:0.5 ratio (CD8:CD4:target cell) for 4 hours and imaged.
as §1, with “56” for “55”, “Adjusted phagocytic index” for “Percent phagocytosis”, “(median area ratio” for “((number”, “of” for “of phagocytic”, “events in” for “events)/(total number of”, “cells*% phagocytosis).” for “cells))*100.”
Phagocytic activity of CD4+ T cell/CER+CD8+ T cell/HPV16 E7 TCR combinations co-cultured with SCC152 cells was visualized and quantified using KEYENCE BZ-X710 fluorescence microscope, […] and hybrid capture software.
In the case of B1, the “engulfment of SCC152 target cells (percent phagocytosis, adjusted phagocytic index)” value is “enhanced engulfment”.
Same read-out and setting: the value for B2 was “enhanced engulfment”.
Regarding B3, the “engulfment of SCC152 target cells (percent phagocytosis, adjusted phagocytic index)” value is on record as “enhanced engulfment”.

Source of the values: patent US12303551B2, “Cellular immunotherapy compositions and uses thereof” (CERO THERPEUTICS HOLDINGS, INC., priority 2018, dated 2025).
